Source: patent US20100143940A1, “(3R)-HYDROXYACYL-ACP DEHYDRATASE ENZYMES USED IN THE BIOSYNTHESIS OF MYCOLIC ACIDS AND USE OF SAME FOR SCREENING ANTIBIOTICS” (priority 2007, published 2010)

Legend:
2-trans-octenoyl-ACP [1] = molecular target: 2-trans-octenoyl-ACP (UniProt P0A6A8)
2-trans-octenoyl-ACP [2] = assay: Study of the ACP-dependency, hydration of the ACP derivative at 263 nm; format: biochemical, E. coli; conditions: 2-trans-octenoyl-ACP 2 μM; Rv0635-Rv0636 80 nM, Rv0636-Rv0637 311 nM, Rv0636 alone 311 nM
[3] = molecular target: T1, 2-trans-octenoyl-ACP, P0A6A8
T1 chain: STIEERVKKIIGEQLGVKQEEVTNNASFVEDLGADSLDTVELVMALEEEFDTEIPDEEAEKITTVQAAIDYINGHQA

[4] = Substrate specificity, 2-trans-enoyl-CoA of various chain lengths; format: biochemical
Procedure: (§1) These reactions are monitored by spectrophotometry at 263 nm by means of a thermostated Uvikon 923 spectrophotometer (Kontron Instruments). They are carried out in a quartz cuvette (optical path of 1 cm) in a total volume of 700 μl at 25° C. The reaction mixture contains 100 mM sodium phosphate buffer, pH 7.0, and varying concentrations of substrates. After equilibration of the base line on the reaction mixture in the absence of the enzyme, the reactions are triggered by the addition of enzyme, and then monitored for 1.5 to 5 min. The reaction rate corresponds to the initial rate measured by plotting the tangent of the curve OD=f(time) at time zero.
The substrate specificity was studied in the presence of 2-trans-enoyl-CoA of various chain lengths (C4-C20). The initial rates were measured and compared at a very low substrate concentration in order to reduce as much as possible the solubility problems encountered with these amphiphilic compounds. […]
The tests were carried out in 100 mM sodium phosphate buffer, pH 7.0, in the presence of 3-hydroxybutyryl-CoA (25 or 75 μM) or of 2-trans-octenoyl-CoA (25 μM) or of crotonoyl-CoA (25 μM), and of enzyme (Rv0635-Rv0636: 80 nM; Rv0636-Rv0637: 543 nM). […] After addition of the enzyme, the reactions were monitored by spectrophotometry at 263 nM for 1.5 min. […]

[5] = Study of the ACP-dependency, hydration of the CoA derivative at 263 nm; format: biochemical; conditions: 2-trans-octenoyl-CoA 2 μM; compared with control experiment (no enzyme)
Procedure: as §1
The activities of the enzymes Rv0635-Rv0636 (80 nM), Rv0636-Rv0637 (311 nM) or Rv0636 alone (311 nM) were compared in the presence of 2-trans-octenoyl-ACP (2 μM) or of 2-trans-octenoyl-CoA (2 μM).

[6] = Hydratase activity monitored by spectrophotometry at 263 nm, control experiments of the isomerase test; format: biochemical; conditions: 2-trans-decenoyl-CoA 10 μM; Rv0635-Rv0636 80 nM or Rv0636-Rv0637 543 nM; 100 mM sodium phosphate pH 7.0, 25° C.
Procedure: as §1
The conversions corresponding to the hydration reaction and to the dehydration reaction are associated, respectively, with a decrease and with an increase in the absorbance at 263 nm, linked to the double bond conjugated to the carbonyl. A variation in OD263 of 0.67 corresponds to a variation in concentration of 100 μM.
(§2) The ability of the proteins to catalyze the isomerization reaction was studied in the presence of 3-cis-decenoyl-CoA (10 μM) and of Rv0635-Rv0636 enzyme (80 nM) or Rv0636-Rv0637 enzyme (543 nM). […] The reactions were monitored at 263 nm, where the increase in absorbance results from the conversion of the 3-cis-decenoyl-CoA into 2-trans-decenoyl-CoA.

[7] = Isomerase activity, conversion of 3-cis-enoyl into 2-trans-enoyl, monitored at 263 nm; format: biochemical; conditions: 3-cis-decenoyl-CoA 10 μM; Rv0635-Rv0636 80 nM or Rv0636-Rv0637 543 nM
Procedure: as §1
As in certain FAS-II systems described, the dehydration step can be catalyzed either by a (3R)-hydroxyacyl-ACP dehydratase, or by a (3R)-hydroxyacyl-ACP dehydratase/isomerase of FabA type which, in vivo, converts the 2-trans-enoyls, formed by the dehydration step, into 3-cis-enoyls. […]
as §2

With Rv0635-Rv0636 heterodimer as the molecule, how does the “specific activity (hydration followed at 263 nm), 2 µM substrate, 80 nM enzyme” value (2-trans-octenoyl-ACP [1]) read?
Its value is 0.28 µmol/min/mg.

B1: Rv0636 homodimer: recombinant Rv0636 protein of M. tuberculosis H37Rv (SEQ ID No. 2) carrying the hydratase 2 motif, tested alone (protein, listed as Mycobacterium tuberculosis)
chain: MALREFSSVKVGDQLPEKTYPLTRQDLVNYAGVSGDLNPIHWDDEIAKVVGLDTAIAHGMLTMGIGGGYVTSWVGDPGAVTEYNVRFTAVVPVPNDGKGAELVFNGRVKSVDPESKSVTIALTATTGGKKIFGRAIASAKLA
modifications: homodimer
With B1 as the molecule, how does the “specific activity in the presence of 2-trans-octenoyl-ACP” value (2-trans-octenoyl-ACP [2]) read?
Its value is “no activity”.

B2: Rv0636-Rv0637 heterodimer (protein)
chain 1: HHHHHHMALREFSSVKVGDQLPEKTYPLTRQDLVNYAGVSGDLNPIHWDDEIAKVVGLDTAIAHGMLTMGIGGGYVTSWVGDPGAVTEYNVRFTAVVPVPNDGKGAELVFNGRVKSVDPESKSVTIALTATTGGKKIFGRAIASAKLA
chain 2: MALKTDIRGMIWRYPDYFIVGREQCREFARAVKCDHPAFFSEEAAADLGYDALVAPLTFVTILAKYVQLDFFRHVDVGMETMQIVQVDQRFVFHKPVLAGDKLWARMDIHSVDERFGADIVVTRNLCTNDDGELVMEAYTTLMGQQGDGSARLKWDKESGQVIRTA
For B2, which “specific activity (hydration followed at 263 nm), 2 µM substrate” value [3] is on record?
The value was 0.047 µmol/min/mg of protein.

B3: Rv0636-Rv0637: recombinant heterodimeric (3R)-hydroxyacyl-ACP dehydratase of the M. tuberculosis H37Rv FAS-II system, Rv0636 plus Rv0637 (protein)
chain 1: HHHHHHMALREFSSVKVGDQLPEKTYPLTRQDLVNYAGVSGDLNPIHWDDEIAKVVGLDTAIAHGMLTMGIGGGYVTSWVGDPGAVTEYNVRFTAVVPVPNDGKGAELVFNGRVKSVDPESKSVTIALTATTGGKKIFGRAIASAKLA
chain 2: MALKTDIRGMIWRYPDYFIVGREQCREFARAVKCDHPAFFSEEAAADLGYDALVAPLTFVTILAKYVQLDFFRHVDVGMETMQIVQVDQRFVFHKPVLAGDKLWARMDIHSVDERFGADIVVTRNLCTNDDGELVMEAYTTLMGQQGDGSARLKWDKESGQVIRTA
Which results are given for B3?
activity on C12-C20 trans-2-enoyl-CoAs at low substrate concentration ([4]; 2.5 μM substrate): no activity could be detected; activity in the presence of short-chain (C4-C8) substrates ([4]; 2.5 or 25 μM 2-trans-enoyl-CoA, Rv0635-Rv0636 80 nM, Rv0636-Rv0637 543 nM): inactive; activity in the presence of 2-trans-octenoyl-CoA [5]: not significant; specific activity [6]: 0.02 μmol/min/mg of protein; isomerase activity [7]: do not exhibit any isomerase activity; specific activity in the presence of 2-trans-octenoyl-ACP (2-trans-octenoyl-ACP [2]): 0.047 µmol/min/mg
